Measurements reported in the supplement of paper PMC9876800.

Test system: peptide library, one residue held at a place counted from the S/T acceptor
Assay: relative phosphorylation of the sub-library (ratio to the mean residue at this position); higher = residue favoured
Details: human
Procedure, shortened: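 Human or orthologue kinase constructs, purified and recombinant, were incubated under kinase-specific conditions in 384-well plates with biotinylated degenerate peptide sub-libraries. Each sub-library fixed one residue at one position around a central Ser/Thr. Incubations lasted 90 min with peptides at 50 μM and 50 μM ATP spiked with γ-32P-ATP, after which spots on streptavidin membranes were phosphorimaged and quantified by densitometry. Relative sub-library phosphorylation is a ratio to the mean residue at that position.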

STK24, construct: Full length, sequence (Q9Y6E0 whole entry, looked up): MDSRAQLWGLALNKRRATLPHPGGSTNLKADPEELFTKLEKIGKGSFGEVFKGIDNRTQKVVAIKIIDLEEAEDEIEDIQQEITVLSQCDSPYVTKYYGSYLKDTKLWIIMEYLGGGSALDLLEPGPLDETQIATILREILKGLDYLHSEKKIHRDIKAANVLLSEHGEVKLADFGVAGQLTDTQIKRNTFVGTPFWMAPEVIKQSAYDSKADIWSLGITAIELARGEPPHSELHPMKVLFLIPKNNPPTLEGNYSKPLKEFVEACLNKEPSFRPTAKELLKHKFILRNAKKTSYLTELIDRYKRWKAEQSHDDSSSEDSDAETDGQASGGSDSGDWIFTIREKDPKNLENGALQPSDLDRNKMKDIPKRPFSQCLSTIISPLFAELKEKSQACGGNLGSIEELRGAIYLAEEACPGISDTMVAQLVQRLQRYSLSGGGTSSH
NLK, construct: Full length, sequence (Q9UBE8 whole entry, looked up): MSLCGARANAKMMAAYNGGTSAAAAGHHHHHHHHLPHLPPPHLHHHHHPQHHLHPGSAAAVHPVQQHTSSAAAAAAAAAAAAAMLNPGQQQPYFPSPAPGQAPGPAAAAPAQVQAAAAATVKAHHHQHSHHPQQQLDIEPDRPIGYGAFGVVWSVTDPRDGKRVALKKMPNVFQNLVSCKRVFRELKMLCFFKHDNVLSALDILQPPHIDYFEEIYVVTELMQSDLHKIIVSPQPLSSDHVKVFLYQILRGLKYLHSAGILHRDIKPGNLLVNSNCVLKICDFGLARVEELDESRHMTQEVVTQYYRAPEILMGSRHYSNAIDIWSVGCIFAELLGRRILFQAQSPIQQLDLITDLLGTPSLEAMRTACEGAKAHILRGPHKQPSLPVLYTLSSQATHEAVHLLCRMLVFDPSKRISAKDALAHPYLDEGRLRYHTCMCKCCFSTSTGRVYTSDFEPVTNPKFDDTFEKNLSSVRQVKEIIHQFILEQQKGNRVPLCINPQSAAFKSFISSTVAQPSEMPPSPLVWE
PDK4, construct: Full length, sequence (Q16654 whole entry, looked up): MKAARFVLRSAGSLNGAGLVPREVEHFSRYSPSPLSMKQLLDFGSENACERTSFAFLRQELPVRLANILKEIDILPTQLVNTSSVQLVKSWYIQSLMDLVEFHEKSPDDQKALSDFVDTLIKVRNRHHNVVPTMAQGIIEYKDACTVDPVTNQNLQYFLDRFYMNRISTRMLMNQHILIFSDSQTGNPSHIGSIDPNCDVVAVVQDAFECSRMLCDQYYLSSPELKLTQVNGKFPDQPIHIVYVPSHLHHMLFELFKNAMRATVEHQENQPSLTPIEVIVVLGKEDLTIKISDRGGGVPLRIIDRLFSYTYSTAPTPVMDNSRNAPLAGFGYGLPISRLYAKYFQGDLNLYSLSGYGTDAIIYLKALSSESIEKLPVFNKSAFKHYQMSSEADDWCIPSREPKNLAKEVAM

STK24, construct: Full length (from UniProt Q9Y6E0)
relative phosphorylation
Details | at +1 | at +2 | at +3 | at +4 | at -1 | at -2 | at -3 | at -4 | at -5
A fixed | 0.627 | 0.917 | 0.954 | 0.963 | 1.01 | 0.99 | 1.02 | 1.14 | 1.34
D fixed | 0.166 | 0.344 | 0.465 | 0.516 | 0.762 | 0.388 | 0.58 | 0.738 | 0.689
E fixed | 0.175 | 0.268 | 0.443 | 0.499 | 0.483 | 0.344 | 0.586 | 0.869 | 0.689
F fixed | 1.29 | 0.471 | 0.999 | 0.679 | 0.781 | 1.19 | 0.855 | 0.867 | 0.873
G fixed | 0.498 | 1.11 | 1.15 | 0.979 | 1.88 | 1.34 | 1.48 | 1.34 | 1.2
H fixed | 0.946 | 1.11 | 1.17 | 1.03 | 1.12 | 1.44 | 1.05 | 1.08 | 1.07
I fixed | 1.77 | 0.493 | 0.827 | 0.727 | 0.43 | 0.782 | 0.675 | 0.743 | 0.713
K fixed | 0.827 | 3.1 | 2.09 | 2.43 | 1.57 | 1.41 | 1.84 | 1.51 | 1.87
L fixed | 1.76 | 0.472 | 1.01 | 0.716 | 0.98 | 0.635 | 0.737 | 0.75 | 0.719
M fixed | 1.61 | 0.6 | 0.843 | 0.846 | 0.897 | 0.702 | 0.738 | 0.81 | 0.68
N fixed | 0.547 | 0.871 | 0.812 | 0.998 | 1.27 | 1.05 | 1.06 | 0.97 | 0.902
P fixed | 0.401 | 0.807 | 0.802 | 0.952 | 0.751 | 0.765 | 0.959 | 0.94 | 1.2
Q fixed | 0.673 | 0.789 | 0.822 | 0.936 | 0.945 | 0.91 | 0.935 | 1.01 | 0.926
R fixed | 0.919 | 3.78 | 1.79 | 2.24 | 1.79 | 1.44 | 1.71 | 1.5 | 1.5
V fixed | 1.47 | 0.615 | 0.828 | 0.693 | 0.546 | 0.83 | 0.71 | 0.772 | 0.851
W fixed | 2.07 | 0.626 | 1.04 | 1.04 | 0.809 | 1.15 | 1.05 | 1.01 | 0.906
Y fixed | 1.25 | 0.618 | 0.968 | 0.76 | 0.981 | 1.64 | 1.01 | 0.951 | 0.868
pThr fixed | 1.19 | 1.05 | 0.892 | 0.801 | 0.865 | 1.28 | 1.61 | 1.33 | 1.43
pTyr fixed | 0.488 | 0.389 | 0.748 | 0.55 | 1.1 | 0.833 | 1.15 | 0.836 | 1.16

MAP3K9, construct: aa132-413 (from UniProt P80192)
relative phosphorylation
Details | at +1 | at +2 | at +3 | at +4 | at -1 | at -2 | at -3 | at -4 | at -5
A fixed | 0.832 | 0.66 | 0.89 | 0.949 | 0.791 | 0.914 | 1.07 | 1.13 | 1.12
D fixed | 0.308 | 0.362 | 0.612 | 0.652 | 1.02 | 1.23 | 1.16 | 1.57 | 1.45
E fixed | 0.492 | 0.46 | 0.619 | 0.719 | 0.854 | 1.03 | 1.38 | 1.45 | 1.3
F fixed | 1.61 | 0.594 | 1.44 | 0.823 | 1.19 | 1.33 | 1.14 | 0.824 | 0.978
G fixed | 0.686 | 0.727 | 0.991 | 1.02 | 0.525 | 0.932 | 1.21 | 1.18 | 1.13
H fixed | 1.23 | 1.66 | 1.28 | 0.995 | 1.3 | 1.13 | 1.1 | 0.955 | 0.984
I fixed | 1.3 | 0.627 | 0.865 | 0.842 | 0.899 | 0.715 | 0.785 | 0.734 | 0.887
K fixed | 1.19 | 2.81 | 1.59 | 1.94 | 1.07 | 0.523 | 0.688 | 0.998 | 0.882
L fixed | 0.969 | 0.598 | 1.11 | 0.841 | 1.08 | 0.824 | 0.792 | 0.759 | 0.737
M fixed | 1.28 | 0.522 | 0.995 | 0.952 | 1.25 | 0.931 | 0.863 | 0.929 | 0.827
N fixed | 0.689 | 0.836 | 0.797 | 0.946 | 1.1 | 1.07 | 1.04 | 0.951 | 1.08
P fixed | 0.208 | 0.36 | 0.501 | 1.04 | 0.775 | 1.57 | 1.15 | 0.99 | 0.9
Q fixed | 1.2 | 0.907 | 0.741 | 0.943 | 0.924 | 1.08 | 0.925 | 0.934 | 0.901
R fixed | 1.55 | 3.45 | 1.47 | 1.8 | 1.26 | 0.817 | 0.946 | 1.14 | 1.05
V fixed | 1.49 | 0.602 | 0.796 | 0.767 | 0.873 | 0.701 | 0.798 | 0.83 | 0.908
W fixed | 1.19 | 0.687 | 1.19 | 1.05 | 0.969 | 1.13 | 0.881 | 0.892 | 0.907
Y fixed | 0.772 | 1.13 | 1.12 | 0.72 | 1.13 | 1.07 | 1.08 | 0.745 | 0.958
pThr fixed | 0.825 | 0.703 | 0.677 | 1.01 | 0.976 | 1.23 | 1.83 | 1.55 | 1.57
pTyr fixed | 0.628 | 0.376 | 0.709 | 0.622 | 1.29 | 1.19 | 1.54 | 1.02 | 1.54

NLK, construct: Full length (from UniProt Q9UBE8)
relative phosphorylation
Details | at +1 | at +2 | at +3 | at +4 | at -1 | at -2 | at -3 | at -4 | at -5
A fixed | 0.638 | 0.768 | 0.938 | 0.8 | 0.85 | 0.989 | 1.12 | 1.03 | 0.998
D fixed | 0.435 | 0.514 | 0.628 | 0.634 | 0.604 | 0.568 | 0.652 | 0.931 | 1.01
E fixed | 0.41 | 0.477 | 0.618 | 0.607 | 0.571 | 0.604 | 0.729 | 0.855 | 0.86
F fixed | 0.806 | 0.705 | 0.863 | 0.75 | 0.88 | 0.807 | 0.723 | 0.802 | 0.926
G fixed | 1.01 | 0.96 | 1.25 | 0.939 | 0.904 | 0.764 | 1.38 | 1.01 | 0.982
H fixed | 0.652 | 1.23 | 1.04 | 0.982 | 1.21 | 0.842 | 0.819 | 1.11 | 1.02
I fixed | 0.888 | 0.99 | 1.24 | 1.37 | 0.868 | 0.941 | 0.579 | 0.931 | 0.847
K fixed | 0.654 | 1.56 | 1.39 | 1.47 | 1.16 | 0.992 | 0.991 | 1.18 | 1.19
L fixed | 0.921 | 1.12 | 0.995 | 1 | 1.9 | 1.81 | 1.12 | 1.03 | 0.995
M fixed | 0.902 | 0.853 | 1.01 | 0.983 | 1.38 | 1.56 | 1.63 | 0.992 | 0.768
N fixed | 0.581 | 0.991 | 0.762 | 0.868 | 0.805 | 0.812 | 0.956 | 1.1 | 1.01
P fixed | 5.41 | 0.754 | 0.9 | 0.946 | 1.07 | 1.42 | 1.16 | 0.89 | 1.02
Q fixed | 0.629 | 0.904 | 0.883 | 0.948 | 0.953 | 1.03 | 0.941 | 1.02 | 1.06
R fixed | 0.798 | 2.21 | 1.66 | 1.39 | 1.35 | 1.41 | 1.9 | 1.32 | 1.3
V fixed | 0.777 | 1.09 | 0.989 | 1.16 | 0.995 | 0.861 | 0.864 | 0.85 | 0.831
W fixed | 0.753 | 0.859 | 0.824 | 1.16 | 0.638 | 0.807 | 0.752 | 1.07 | 1.07
Y fixed | 0.743 | 1.01 | 1.01 | 0.996 | 0.857 | 0.796 | 0.688 | 0.88 | 1.11
pThr fixed | 0.784 | 0.694 | 0.723 | 0.725 | 0.775 | 0.996 | 0.944 | 1.18 | 0.965
pTyr fixed | 0.717 | 0.523 | 0.796 | 0.631 | 0.774 | 0.772 | 0.734 | 0.661 | 0.949

PDK4, construct: Full length (from UniProt Q16654)
relative phosphorylation
Details | at +1 | at +2 | at +3 | at +4 | at -1 | at -2 | at -3 | at -4 | at -5
A fixed | 0.674 | 0.87 | 1.15 | 0.987 | 1.05 | 0.953 | 0.939 | 0.873 | 1.06
D fixed | 0.79 | 1.21 | 1.1 | 1.16 | 1.09 | 0.775 | 0.841 | 0.861 | 0.995
E fixed | 0.679 | 1.64 | 1.06 | 0.972 | 0.718 | 0.715 | 0.788 | 0.818 | 0.876
F fixed | 1.34 | 0.962 | 1.52 | 1.07 | 1.21 | 1.03 | 1.65 | 1.53 | 1.25
G fixed | 0.705 | 1.22 | 1.05 | 1.06 | 1.29 | 1.22 | 1.02 | 0.992 | 1.03
H fixed | 0.838 | 0.883 | 1.09 | 0.947 | 1.02 | 1.23 | 1.11 | 0.983 | 0.996
I fixed | 1.2 | 0.742 | 1.03 | 0.802 | 0.778 | 0.776 | 0.912 | 0.897 | 0.99
K fixed | 0.692 | 0.745 | 0.622 | 0.834 | 0.847 | 0.889 | 0.827 | 0.86 | 0.88
L fixed | 1.74 | 0.951 | 0.993 | 0.98 | 0.947 | 0.97 | 0.961 | 0.905 | 1.05
M fixed | 1.48 | 1.06 | 1.23 | 1.02 | 1.15 | 1.08 | 1.07 | 1.04 | 1.29
N fixed | 0.732 | 1.05 | 0.898 | 1.36 | 1.1 | 0.883 | 0.906 | 0.964 | 1.15
P fixed | 0.825 | 0.823 | 0.93 | 1.01 | 0.874 | 1.09 | 0.973 | 0.878 | 0.723
Q fixed | 0.862 | 1.09 | 0.818 | 0.959 | 0.89 | 0.964 | 0.912 | 0.95 | 0.791
R fixed | 0.853 | 0.939 | 0.729 | 0.968 | 1.03 | 1.02 | 0.913 | 0.962 | 0.869
V fixed | 0.972 | 0.791 | 0.771 | 0.828 | 0.783 | 0.864 | 0.831 | 0.827 | 0.825
W fixed | 1.61 | 1.03 | 1.01 | 1.04 | 1.22 | 1.55 | 1.35 | 1.66 | 1.21
Y fixed | 1.34 | 0.962 | 1.52 | 1.07 | 1.21 | 1.03 | 1.65 | 1.53 | 1.25
pThr fixed | 0.849 | 1.01 | 1.27 | 1.36 | 0.587 | 0.794 | 0.865 | 0.973 | 1.09
pTyr fixed | 0.895 | 1.19 | 0.99 | 1 | 0.7 | 0.943 | 1.31 | 1.83 | 1.07
